Paper doi:10.1101/456046

Biological target: Photosystem II subunit S (PsbS) from Physcomitrella patens (Physcomitrella patens)
Assay: SDS-PAGE

- stoichiometry N: 2
Substance: Photosystem II subunit S (PsbS) from Physcomitrella patens (natural protein)
